Test results as given in the supplement of paper PMC10567573.

B1: ESRRG (parent)
chain: YSCPATNECEITKRRRKSCQACRF

Variants of: B1
Experiment: protein stability index of a GFP-peptide fusion (GPS, HEK-293T) (PSI 1-6); higher = more stable
Conditions: c terminus: a fixed tail appended
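Also: lentivirally expressed fusions sorted by FACS into six bins by GFP to DsRed ratio, PSI derived from sequencing read proportions per bin multiplied by bin number.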

Protein stability index of substitutions, site by site:
Q20: M 2.86, K 3.92, P 3.39, Y 2.81, G 3.53, V 2.78, E 3.62, W 2.21, A 3.52, C 2.67, H 2.67, I 2.2, R 3.49, F 1.91, T 2.93, S 3.02, N 3.52, D 3.7, L 2.53
S18: D 3.6, Q 3.6, P 3.66, M 3.38, N 3.44, V 3.08, C 3.31, A 3.58, Y 2.87, R 3.8, G 2.74, T 3.59, K 3.51, H 3.48, L 3.19, W 2.93, I 3.16, E 3.43, F 2.9
R15: D 4.01, S 3.48, E 3.37, Y 3.34, N 3.62, M 2.96, I 3.32, Q 3.38, V 3.22, K 2.91, L 2.79, P 3.28, H 4.16, C 3.46, F 2.96, T 3.22, G 3.91, W 2.81, A 3.33
K17: T 2.92, Q 3.29, D 3.37, V 2.97, C 4.5, Y 2.35, G 3.51, F 2.69, A 3.17, S 3, N 3.25, W 2.83, L 3.06, M 3.06, P 2.9, E 3.63, R 3.31, I 3.51, H 3.82
R14: Q 3.48, W 3.11, V 3.03, L 2.81, D 3.76, T 3.42, E 3.62, I 3.03, G 3.7, Y 3.17, K 3.52, M 3.09, P 3.13, S 3.6, A 3.51, F 3.19, N 3.63, H 4.23, C 4.61
C19: Q 3.78, W 3.15, K 3.94, N 3.82, F 3.17, Y 3.44, I 2.94, T 3.85, H 3.69, R 3.72, P 3.35, M 3.42, G 3.55, D 4.09, A 3.83, V 3.27, E 3.84, L 3.14, S 3.54
C22: F 2.81, A 3.47, G 3.38, E 3.49, I 3.42, D 4.07, K 3.97, H 3.5
R16: C 3.72, H 3.8, D 3.75, V 3.32, S 3.8, K 3.62, T 3.96, Y 3, M 3.07, P 3.24, Q 3.66, A 3.48, I 3.31, L 2.92, W 3.06, F 2.92, E 3.63, N 3.69, G 3.66
K13: S 3.5, T 3.2, Y 2.78, Q 3.45, W 2.52, R 3.64, V 3.59
A21: W 2.55, E 3.43, N 3.41, S 3.23, Q 3.29, Y 3.16, K 3.63, C 3.66, F 2.94, T 3.47, H 4.06, L 2.31, I 2.54, M 2.46, D 3.49, P 3.29, R 3.49, V 3.2, G 3.44
